Target: CTNNBL1^Q238A (human) (UniProt Q8WYA6)
Assay: SEC; Superdex 200 10/300, 500 μl of 2 mg/ml protein, 0.5 ml/min, 40 mM Tris-HCl pH 8.0, 150 mM NaCl; molecular weight from calibration standards

Substance: CTNNBL1^Q238A (from UniProt Q8WYA6 77-563) (domain or fragment)
- stoichiometry N: 2
